Source: patent publication US20110318339A1 (FABRUS, published 2011)

Key:
[1] = molecular target: T1, Recombinant Human DLL4 (Cat# 1506-D4/CF, R&D Systems) (human, UniProt Q9NR61 27-529); assay: ELISA, DLL4 coated
T1 construct: Bought protein; also called rHuman DLL4; hDLL4

[2] = molecular target: T1, Recombinant Human DLL4 (Cat# …); assay: SPR, DLL4 immobilised
Method: In this example, the binding affinities of selected anti-DLL4 Fabs to recombinant human DLL4 (hDLL4, Cat# 1506-D4/CF, R&D Systems) were analyzed using Surface Plasmon Resonance (SPR) (Biosensor Tools, Salt Lake City, Utah). The Fabs analyzed include germline-derived antibodies and germline-modified DLL4 antibodies. Recombinant hDLL4 was immobilized on a SPR chip using amine coupling at three different surface densities. The Fabs were serially diluted 3-fold, with an initial concentration of 1 μM. Binding studies were run on a ProteOn system using a GLM sensor chip in 10 mM HEPES, pH 7.4, 150 mM NaCl, 0.01% Tween-20, and 0.1 mg/ml BSA at 25° C. The response data from each surface was globally fit to determine the binding constants.

[3] = molecular target: T2, DLL4 DSL (amino acid: 1-217) construct (human, UniProt Q9NR61 26-217); assay: Western blot, non-reducing
T2 construct: also called DSL construct; not shown: myc tag (and his tag) added by the PCR primers
Method: (§1) Media from transfected CHO cells was collected after 7 days. To enrich for the DLL4 protein, 1 ml aliquots of each sample were batch bound with 50 μl of Talon Resin for 30 minutes. To confirm protein production media samples were tested with mouse anti-c-myc mAb (Genescript; Catalog # A00704). Samples were washed and then boiled with loading dye in the presence or absence of DTT. A gel was run on each of the 2 samples for each condition: with DTT and without DTT. […] For detection goat anti-mouse HRP, goat anti-kappa HRP, and goat anti-lambda HRP were used, respectively.

[4] = molecular target: T3, DLL4 Egf1 (amino acid: 1-251) construct (human, UniProt Q9NR61 26-251); assay: Western blot, non-reducing
T3 construct: also called EGF1 construct; not shown: myc tag (and his tag) added by the PCR primers
Method: as §1

[5] = molecular target: T4, recombinant mouse DLL4 (Cat# 1389-D4-050/CF, R&D Systems) (mouse, UniProt Q9JI71 28-525); assay: ELISA, mDLL4 or hDLL4 coated
T4 construct: also called mDLL4

[6] = molecular target: T1, Recombinant Human DLL4 (Cat# …); assay: ELISA, hDLL4 coated, estimated from dose-dependent binding
[7] = molecular target: T1, Recombinant Human DLL4 (Cat# …); assay: ECL competition, DLL4 coated; competitor 100 nM Ru-labeled Fab H:APF & L:wt
Method: Briefly, single spot 96-well standard plates (MSD) were coated overnight with 5 μl per well of 10 μg/ml DLL4 (R&D systems) in PBS with 0.03% Triton X-100. Some wells were left uncoated as blank. The next day, an 150 μl aliquot of 3% BSA in TBST was added to each well and allowed to incubate for 60 min at 20° C. to block the plate. […] After incubating the plate at 20° C. with shaking for 1 hour, the ECL signal was measured using a Sector Imager 2400.

[8] = molecular target: T5, rHuman HGF R/c-MET/Fc Chimera, CF (Cat# 358-MT/CF) (human, UniProt P08581 25-932); assay: Multispot ECL; Fab 70 nM
T5 construct: Bought from R&D Systems; also called HGF R/Fc; hepatocyte growth factor receptor (HGF R/c-Met)
Method: (§2) An 150 μl aliquot of 1% Bovine Serum Albumin (BSA) in Tris-buffered Saline Tween (TBST) was added to each well and allowed to incubate for 30 min at 20° C. followed by washing and tap drying to completely remove any residual solution. Subsequently, a 12.5 μl aliquot of 1% BSA TBST was added to each well followed by the addition of a 12.5 μl aliquot of a purified Fab. The plate was sealed and incubated for 1 hour at 20° C. with shaking.
(§3) Detection antibodies were prepared by individually conjugating both goat anti-human Kappa light chain polyclonal antibody (K3502-1MG, Sigma-Aldrich) and goat anti-human Lambda light chain polyclonal antibody (L1645-1 mL, Sigma-Aldrich) with Ruthenium (II) tris-bipyridine-(4-methylsulfone)-N-hydroxysuccinimide (SULFO-TAG NHS-ester, Meso Scale Discovery) according to the manufacturer's instructions. TAG-detection antibody at 25 μl was added to each well and allowed to incubate for 1 hour at 20° C. with shaking. Finally, 15 μl of Read Buffer P with Surfactant (Cat # R92PC-1, Meso Scale Discovery) was added to each well. The electrochemiluminescence was measured using a Sector Imager 2400 (Meso Scale Discovery). Data was analyzed by comparing the ECL signals for an antigen to the blank of each well. A signal to blank ratio of 4 or more was considered a “Hit” Fab. […]

[9] = molecular target: T6, Recombinant Human DLL4 (Cat# 1506-D4/CF) (human, UniProt Q9NR61 27-529); assay: Multispot ECL; Fab 70 nM
T6 construct: Bought from R&D Systems; also called rHuman DLL4; hDLL4
Method: as §2, §3

[10] = molecular target: T5, rHuman HGF R/c-MET/Fc Chimera, CF (Cat# …); assay: Multispot ECL; Fab 280 nM
Method: as §2, §3

[11] = molecular target: T6, Recombinant Human DLL4 (Cat# 1506-D4/CF); assay: Multispot ECL; Fab 280 nM
Method: as §2, §3

[12] = molecular target: T5, rHuman HGF R/c-MET/Fc Chimera, CF (Cat# …); assay: Multispot ECL; Fab 17.5 nM
Method: as §2, §3

[13] = molecular target: T6, Recombinant Human DLL4 (Cat# 1506-D4/CF); assay: Multispot ECL; Fab 17.5 nM
Method: as §2, §3

[14] = molecular target: T5, rHuman HGF R/c-MET/Fc Chimera, CF (Cat# …); assay: Multispot ECL; Fab 4.375 nM
Method: as §2, §3

[15] = molecular target: T6, Recombinant Human DLL4 (Cat# 1506-D4/CF); assay: Multispot ECL; Fab 4.375 nM
Method: as §2, §3

[16] = molecular target: T7, rHuman Notch-1/Fc Chimera, CF (Cat# 3647-TK) (human, UniProt P46531 19-526); assay: Multispot ECL; Fab 230 nM
T7 construct: Bought from R&D Systems
Method: as §2
(§4) Detection antibodies were prepared by individually conjugating both goat anti-human Kappa light chain polyclonal antibody (K3502-1MG, Sigma-Aldrich) and goat anti-human Lambda light chain polyclonal antibody (L1645-1 mL, Sigma-Aldrich) with Ruthenium (II) tris-bipyridine-(4-methylsulfone)-N-hydroxysuccinimide (SULFO-TAG NHS-ester, Meso Scale Discovery) according to the manufacturer's instructions. TAG-detection antibody at 25 μl was added to each well and allowed to incubate for 1 hour at 20° C. with shaking. Finally, 15 μl of Read Buffer P with Surfactant (Cat # R92PC-1, Meso Scale Discovery) was added to each well. The electrochemiluminescence was measured using a Sector Imager 2400 (Meso Scale Discovery). Data was analyzed by comparing the ECL signals for an antigen to the blank of each well. A signal to blank ratio of 4 or more was considered a “Hit” Fab.
(§5) To confirm a “Hit” from the initial Multispot ECL screening, a Fab concentration dependent titration was carried out to determine the Fab-antigen binding affinity.

[17] = molecular target: T8, rHuman IGF-1 sR, (IGF-1 sR), CF (Cat# 391-GR) (human, UniProt P08069 31-932); assay: Multispot ECL; Fab 230 nM
T8 construct: Bought from R&D Systems; also called insulin-like growth factor-1 soluble receptor
Method: as §2, §4, §5

[18] = molecular target: T9, rHuman Erythropoietin R/Fc Chimera, CF (Cat# 963-ER) (human, UniProt P19235 25-250); assay: Multispot ECL; Fab 230 nM
T9 construct: Bought from R&D Systems; also called EPO R/Fc; Epo R/Fc chimera
T9 sequence (looked up): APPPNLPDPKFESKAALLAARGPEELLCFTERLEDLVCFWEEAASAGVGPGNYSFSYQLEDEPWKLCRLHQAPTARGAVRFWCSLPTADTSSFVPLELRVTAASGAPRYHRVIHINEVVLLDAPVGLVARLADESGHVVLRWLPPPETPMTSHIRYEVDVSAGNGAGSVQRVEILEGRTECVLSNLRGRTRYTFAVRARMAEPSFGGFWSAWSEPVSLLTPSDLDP
Method: as §2, §4, §5

[19] = molecular target: T6, Recombinant Human DLL4 (Cat# 1506-D4/CF); assay: Multispot ECL; Fab 230 nM
Method: as §2, §4, §5

[20] = molecular target: T7, rHuman Notch-1/Fc Chimera, CF (Cat# …); assay: Multispot ECL; Fab 920 nM
Method: as §2, §4, §5

[21] = molecular target: T8, rHuman IGF-1 sR, (IGF-1 sR), CF (Cat# …); assay: Multispot ECL; Fab 920 nM
Method: as §2, §4, §5

[22] = molecular target: T9, rHuman Erythropoietin R/Fc Chimera, CF …; assay: Multispot ECL; Fab 920 nM
Method: as §2, §4, §5

[23] = molecular target: T6, Recombinant Human DLL4 (Cat# 1506-D4/CF); assay: Multispot ECL; Fab 920 nM
Method: as §2, §4, §5

[24] = molecular target: T7, rHuman Notch-1/Fc Chimera, CF (Cat# …); assay: Multispot ECL; Fab 57.5 nM
Method: as §2, §4, §5

[25] = molecular target: T8, rHuman IGF-1 sR, (IGF-1 sR), CF (Cat# …); assay: Multispot ECL; Fab 57.5 nM
Method: as §2, §4, §5

[26] = molecular target: T9, rHuman Erythropoietin R/Fc Chimera, CF …; assay: Multispot ECL; Fab 57.5 nM
Method: as §2, §4, §5

[27] = molecular target: T6, Recombinant Human DLL4 (Cat# 1506-D4/CF); assay: Multispot ECL; Fab 57.5 nM
Method: as §2, §4, §5

[28] = molecular target: T7, rHuman Notch-1/Fc Chimera, CF (Cat# …); assay: Multispot ECL; Fab 14.375 nM
Method: as §2, §4, §5

[29] = molecular target: T8, rHuman IGF-1 sR, (IGF-1 sR), CF (Cat# …); assay: Multispot ECL; Fab 14.375 nM
Method: as §2, §4, §5

[30] = molecular target: T9, rHuman Erythropoietin R/Fc Chimera, CF …; assay: Multispot ECL; Fab 14.375 nM
Method: as §2, §4, §5

[31] = molecular target: T6, Recombinant Human DLL4 (Cat# 1506-D4/CF); assay: Multispot ECL; Fab 14.375 nM
Method: as §2, §4, §5

T4 sequence (Q9JI71 28-525 limits assumed): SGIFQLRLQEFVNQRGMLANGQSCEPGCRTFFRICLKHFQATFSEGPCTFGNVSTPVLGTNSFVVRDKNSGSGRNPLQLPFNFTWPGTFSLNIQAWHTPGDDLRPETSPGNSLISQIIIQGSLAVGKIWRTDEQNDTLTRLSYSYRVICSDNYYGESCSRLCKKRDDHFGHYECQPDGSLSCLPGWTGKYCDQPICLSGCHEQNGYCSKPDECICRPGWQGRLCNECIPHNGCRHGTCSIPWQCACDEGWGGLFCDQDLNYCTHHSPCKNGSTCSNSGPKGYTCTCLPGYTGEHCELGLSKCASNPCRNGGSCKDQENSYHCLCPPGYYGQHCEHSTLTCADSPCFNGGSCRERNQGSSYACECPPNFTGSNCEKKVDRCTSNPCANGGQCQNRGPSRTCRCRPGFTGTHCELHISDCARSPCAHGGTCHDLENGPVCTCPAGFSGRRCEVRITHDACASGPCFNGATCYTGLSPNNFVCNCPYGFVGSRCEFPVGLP

B1: Fab VH1-46_IGHD6-6*01_IGHJ1*01 H:APFF VLTH & L6_IGKJ1*01 L:NDH LS (Fab, V domains shown)
VH: QVQLVQSGAEVKKPGASVKVSCKASGYTFTSYYMHWVRQAPGQGLEWMGIVLPTGHSTSYAQKFQGRVTMTRDTSTSTVYMELSSLRSEDTAVYYCAREEYAPFSAEYFQFWGQGTLVTVSS
VL: EIVLTQSPATLSLSPGERATLSCRASQNVDHYLAWYQQKPGQAPRLLIYDALNRSTGIPARFSGSGSGTDFTLTISSLEPEDFAVYYCQQRSNWPPWTFGQGTKVEIKR
notes: all other places give 370; also called Fab H:APFF VLTH & L:NDH LS; anti-DLL4 Fab H:APFF VLTH & L:NDH LS
fold increased binding affinity against the antibody mutants with heavy chain H:APFF ALTH [1]: ~10 fold | fold greater affinity for hDLL4 than for mouse DLL4 [2]: 5 fold | binding result [3]: no binding (tested: 20 nM Fab) | binding result [4]: no binding (tested: 20 nM Fab) | fold decrease in affinity for mDLL4 against hDLL4 [5]: 10 fold | Kd [6]: ~1 nM

B2: Fab VH1-46_IGHD6-6*01_IGHJ1*01 H:APFF G56H & L6_IGKJ1*01 (Fab, V domains shown)
VH: QVQLVQSGAEVKKPGASVKVSCKASGYTFTSYYMHWVRQAPGQGLEWMGIINPSGHSTSYAQKFQGRVTMTRDTSTSTVYMELSSLRSEDTAVYYCAREEYAPFSAEYFQFWGQGTLVTVSS
VL: not shown
notes: Fab, kappa light chain; also called H:APFF G56H & L:wt
Kd [7]: ~30 nM

B3: Fab VH1-46_IGHD2-15*01_IGHJ2*01 & L12_IGKJ1*01 (Fab, V domains shown)
VH: QVQLVQSGAEVKKPGASVKVSCKASGYTFTSYYMHWVRQAPGQGLEWMGIINPSGGSTSYAQKFQGRVTMTRDTSTSTVYMELSSLRSEDTAVYYCAREGYCSGGSCYSYWYFDLWGRGTLVTVSS
VL: not shown
notes: Germline-derived Fab from E. coli: VH in Plasmid A (CH1, His6 and Flag tags), VL in Plasmid C (kappa CL)
ECL signal [8]: 1290 | ECL signal [9]: 2750 | ECL signal [10]: 3560 | ECL signal [11]: 8110 | ECL signal [12]: 565 | ECL signal [13]: 1220 | ECL signal [14]: 193 | ECL signal [15]: 558

B4: Fab VH1-46_IGHD3-10*01_IGHJ4*01 & L12_IGKJ1*01 (Fab, V domains shown)
VH: QVQLVQSGAEVKKPGASVKVSCKASGYTFTSYYMHWVRQAPGQGLEWMGIINPSGGSTSYAQKFQGRVTMTRDTSTSTVYMELSSLRSEDTAVYYCAREYYYGSGSYYNDYFDYWGQGTLVTVSS
VL: not shown
notes: as for B3
ECL signal [16]: 9740 | ECL signal [17]: 4760 | ECL signal [18]: 6950 | ECL signal [19]: 119000 | ECL signal [20]: 20100 | ECL signal [21]: 10200 | ECL signal [22]: 16400 | ECL signal [23]: 73600 | ECL signal [24]: 5890 | ECL signal [25]: 2830 | ECL signal [26]: 4040 | ECL signal [27]: 144000 | ECL signal [28]: 4210 | ECL signal [29]: 1750 | ECL signal [30]: 2720 | ECL signal [31]: 125000
